Consider three molecules from patent publication US20180057567A1 (Sanofi, published 2018).

One test has as its target T1, recombinant human IL4 (human, UniProt P05112 25-153).
T1 construct: Bought protein
T1 sequence (looked up): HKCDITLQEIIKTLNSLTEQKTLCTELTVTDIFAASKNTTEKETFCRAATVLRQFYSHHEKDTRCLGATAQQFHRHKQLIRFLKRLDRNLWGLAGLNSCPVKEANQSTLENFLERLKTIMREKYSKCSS
The experiment in a line: SPR (Biacore).

The target in the next test is T2, CD3.
T2 chain 1: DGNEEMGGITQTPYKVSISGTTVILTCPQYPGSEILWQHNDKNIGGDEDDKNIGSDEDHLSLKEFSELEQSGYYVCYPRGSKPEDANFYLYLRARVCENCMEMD
T2 chain 2: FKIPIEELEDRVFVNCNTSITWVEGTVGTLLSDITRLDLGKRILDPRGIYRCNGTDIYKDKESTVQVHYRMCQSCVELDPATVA
Kind of test: SPR (Biacore), CD3 as analyte. Background: In SPR one partner is held on a chip, and binding of the other changes the refractive index at the surface.

Another test has as its target T3, CD123 (UniProt P26951 19-305, limits assumed).
T3 sequence (looked up): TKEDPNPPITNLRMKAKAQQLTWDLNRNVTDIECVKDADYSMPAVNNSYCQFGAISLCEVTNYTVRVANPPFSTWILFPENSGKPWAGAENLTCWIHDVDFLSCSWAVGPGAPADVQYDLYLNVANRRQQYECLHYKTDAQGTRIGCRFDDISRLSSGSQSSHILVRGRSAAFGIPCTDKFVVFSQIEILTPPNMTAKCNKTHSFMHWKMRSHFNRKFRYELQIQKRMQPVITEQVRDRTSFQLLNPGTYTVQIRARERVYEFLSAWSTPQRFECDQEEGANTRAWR
Kind of test: SPR (Biacore), CD123 as analyte.

B1: bispecific Fab-like fragment in the CODV bivalent Fab configuration (ECH2), anti-IL13 (huBB13) x anti-IL4 (hu8D4-8) (Example 6) (bispecific antibody)
chain 1: EVQLKESGPGLVAPGGSLSITCTVSGFSLTDSSINWVRQPPGKGLEWLGMIWGDGRIDYADALKSRLSISKDSSKSQVFLEMTSLRTDDTATYYCARDGYFPYAMDFWGQGTSVTVSSSQVQLQQSGPELVKPGASVKISCKASGYSFTSYWIHWIKQRPGQGLEWIGMIDPSDGETRLNQRFQGRATLTVDESTSTAYMQLRSPTSEDSAVYYCTRLKEYGNYDSFYFDVWGAGTLVTVSSRTASTKGPVASRDFTPPTVKILQSSCDGGGHFPPTIQLLCLVSGYTPGTIQITWLEDGQVMDVDLSTASTTQEGELASTQSELTLSQKHWLSDRTYTCQVTYQGHTFEDSTKKCAGSHHHHHHHH
chain 2: DIQMTQSPASLSVSVGDTITLTCHASQNIDVWLSWFQQKPGNIPKLLIYKASNLHTGVPSRFSGSGSGTGFTLTISSLQPEDIATYYCQQAHSYPFTFGGGTKLEIKGQPKAAPDIVLTQSPASLAVSLGQRATISCRASESVDSYGQSYMHWYQQKAGQPPKLLIYLASNLESGVPARFSGSGSRTDFTLTIDPVQAEDAATYYCQQNAEDSRTFGGGTKLEIKTKGPSRTVASRDFTPPTVKILQSSCDGGGHFPPTIQLLCLVSGYTPGTIQITWLEDGQVMDVDLSTASTTQEGELASTQSELTLSQKHWLSDRTYTCQVTYQGHTFEDSTKKCA
notes: An 8x histidine tag was added for purification; also called CH2E-pseudo-CODV antibody
As for B1, in the test with recombinant human IL4, the binding result was “binds”.

B2: antibody in Bivalent Fab configuration, MCH2 domain of one Fab-like fragment (CD3) linked to a variable domain of the other Fab (CD123) (Example 5) (bispecific antibody)
light 1: DIVMTQTPLSLSVTPGQPASISCKSSQSLVHNNANTYLSWYLQKPGQSPQSLIYKVSNRFSGVPDRFSGSGSGTDFTLKISRVEAEDVGVYYCGQGTQYPFTFGSGTKVEIKRTVIAELPPKVSVFVPPRDGFFGNPRKSKLICQATGFSPRQIQVSWLREGKQVGSGVTTDQVQAEAKESGPTTYKVTSTLTIKESDWLGQSMFTCRVDHRGLTFQQNASSMCVP
heavy: QVQLVESGGGVVQPGRSLRLSCAASGFTFTKAWMHWVRQAPGKQLEWVAQIKDKSNSYATYYADSVKGRFTISRDDSKNTLYLQMNSLRAEDTAVYYCRGVYYALSPFDYWGQGTLVTVSSGGVIAELPPKVSVFVPPRDGFFGNPRKSKLICQATGFSPRQIQVSWLREGKQVGSGVTTDQVQAEAKESGPTTYKVTSTLTIKESDWLGQSMFTCRVDHRGLTFQQNASSMCVPGGGSEVQLVQSGAEVKKPGESLKISCKGSGYSFTDYYMKWARQMPGKGLEWMGDIIPSSGATFYNQKFKGQVTISADKSISTTYLQWSSLKASDTAMYYCARSHLLRASWFAYWGQGTMVTVSSASTKGPSVFPLAPSSKSTSGGTAALGCLVKDYFPEPVTVSWNSGALTSGVHTFPAVLQSSGLYSLSSVVTVPSSSLGTQTYICNVNHKPSNTKVDKKVEPKSCDKTHTHHHHHH
light 2: not shown
notes: also called bispecific bivalent Fab; bivalent bispecific Fab fragment
In general, Kd refers to the concentration at which binding is half-saturated. High values mean weaker binding, low ones tighter binding. Usually koff stands for the first-order rate constant of dissociation. A higher koff goes with a short-lived complex. One may read the kon as a measure of how fast the partners come together. With B2, in the test with CD3, the Kd was found to be 5.71 nM, the koff was 0.0009 s⁻¹ and the on-rate (kon) came out at 158000 M⁻¹ s⁻¹. Also, in the test with CD123, binding was put at a Kd of 0.0838 nM, the koff is 3.77e-05 s⁻¹ and the kon amounted to 450000 M⁻¹ s⁻¹.

B3: F(ab')2-like antibody with ECH2 replacing the hinge region, anti-IL4 (hu8D4-8) CH1/kappa Fab and anti-IL13 (huBB13) MCH2 Fab (Example 7) (bispecific antibody)
heavy 1: VQLQQSGPELVKPGASVKISCKASGYSFTSYWIHWIKQRPGQGLEWIGMIDPSDGETRLNQRFQGRATLTVDESTSTAYMQLRSPTSEDSAVYYCTRLKEYGNYDSFYFDVWGAGTLVTVSSASTKGPSVFPLAPSSKSTSGGTAALGCLVKDYFPEPVTVSWNSGALTSGVHTFPAVLQSSGLYSLSSVVTVPSSSLGTQTYICNVNHKPSNTKVDKKVEPKSCGSGSGSVASRDFTPPTVKILQSSCDGGGHFPPTIQLLCLVSGYTPGTIQITWLEDGQVMDVDLSTASTTQEGELASTQSELTLSQKHWLSDRTYTCQVTYQGHTFEDSTKKCA
light 1: DIQMTQSPASLSVSVGDTITLTCHASQNIDVWLSWFQQKPGNIPKLLIYKASNLHTGVPSRFSGSGSGTGFTLTISSLQPEDIATYYCQQAHSYPFTFGGGTKLEIKRTVAAPSVFIFPPSDEQLKSGTASVVCLLNNFYPREAKVQWKVDNALQSGNSQESVTEQDSKDSTYSLSSTLTLSKADYEKHKVYACEVTHQGLSSPVTKSFNRGEC
heavy 2: EVQLKESGPGLVAPGGSLSITCTVSGFSLTDSSINWVRQPPGKGLEWLGMIWGDGRIDYADALKSRLSISKDSSKSQVFLEMTSLRTDDTATYYCARDGYFPYAMDFWGQGTSVTVSSGSGSGSVIAELPPKVSVFVPPRDGFFGNPRKSKLICQATGFSPRQIQVSWLREGKQVGSGVTTDQVQAEAKESGPTTYKVTSTLTIKESDWLGQSMFTCRVDHRGLTFQQQASSMCVPGSGSGSVASRDFTPPTVKILQSSCDGGGHFPPTIQLLCLVSGYTPGTIQITWLEDGQVMDVDLSTASTTQEGELASTQSELTLSQKHWLSDRTYTCQVTYQGHTFEDSTKKCAGSHHHHHHHH
light 2: DIVLTQSPASLAVSLGQRATISCRASESVDSYGQSYMHWYQQKAGQPPKLLIYLASNLESGVPARFSGSGSRTDFTLTIDPVQAEDAATYYCQQNAEDSRTFGGGTKLEIKRTVIAELPPKVSVFVPPRDGFFGNPRKSKLICQATGFSPRQIQVSWLREGKQVGSGVTTDQVQAEAKESGPTTYKVTSTLTIKESDWLGQSMFTCRVDHRGLTFQQQASSMCVP
notes: also called pseudo hinge-CH2E-hybrid-Fab2
With B3, the binding result with recombinant human IL4 is recorded as “binds”.
